Measurements from the RNAGym collection of RNA variant scans (doi:10.1073/pnas.2313332121).

B1: TPR t1 (parent)
chain: GACCAAUCUGCCCUCAGAGCUCGAGAACAUCUUCGGAUGCAGAGGAGGCAGGCUUCGGUGGCGCGAUAGCGCCAACGUCCUCAACCUCCAAUGCAUCCCACCACAUGAUGAUGCCUGAAGAGCCUUGGUUUUUUG

Variants of: B1
Test: polymerase ribozyme fitness, log enrichment relative to wild type (log ratio); higher = more active; in vitro selection for triplet polymerase activity
Procedure, shortened: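 Each subunit of a heterodimeric triplet polymerase ribozyme was represented by a PCR-built, transcribed mutant library that underwent triplicate single-round in vitro selection with frozen incubation at −7 °C. Extended constructs were recovered by gel excision, streptavidin-bead capture and RT-PCR, and Illumina sequencing of input and output libraries kept genotypes with ≥10 input reads and ≥1 read per output. Fitness is the logarithm of genotype enrichment relative to wild-type enrichment, from inverse-variance-weighted replicate averages, with a logarithm base of 2.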
For U9G A27U, the “polymerase ribozyme fitness (log ratio)” value was -3.6. For U9A G36C C101U, the “polymerase ribozyme fitness (log ratio)” value was -0.0357. With U9C C98G the “polymerase ribozyme fitness (log ratio)” value was -5.05. In the case of C8U G45A, the “polymerase ribozyme fitness (log ratio)” value is reported as 0.126. With C8U G61A C70U U87G C89G the “polymerase ribozyme fitness (log ratio)” value was -5.05. For U9A C73U, the “polymerase ribozyme fitness (log ratio)” value was 0.98. With U9G C94A the “polymerase ribozyme fitness (log ratio)” value was -0.976. With C8U C49G C123U the “polymerase ribozyme fitness (log ratio)” value was 1.73. In the case of C8U G61U C70G, the “polymerase ribozyme fitness (log ratio)” value is reported as -4.76. With U9A G10C C79A C101G the “polymerase ribozyme fitness (log ratio)” value was -2.55. With C8U U14G G45A G69A the “polymerase ribozyme fitness (log ratio)” value was -2.72. In the case of U9G A24G, the “polymerase ribozyme fitness (log ratio)” value is reported as -0.443. For C8U U55C C64G U112A, the “polymerase ribozyme fitness (log ratio)” value was -6.22. In the case of U9G A95C, the “polymerase ribozyme fitness (log ratio)” value is reported as -1.41. In the case of C8G U14G A43C G47U C82G U133A, the “polymerase ribozyme fitness (log ratio)” value is reported as -3.36. With U9G A26U the “polymerase ribozyme fitness (log ratio)” value was -2.33. In the case of U9G C86A C114A, the “polymerase ribozyme fitness (log ratio)” value is reported as -0.649. In the case of U9G C70U U81C G110U, the “polymerase ribozyme fitness (log ratio)” value is reported as -3.84. With C8G U32A A43U G47U G52C C86A U96A the “polymerase ribozyme fitness (log ratio)” value was -6.26. For U9A C12U A27C C53U G63A A83C, the “polymerase ribozyme fitness (log ratio)” value was -4.89. For C8U A50U A75U U130A, the “polymerase ribozyme fitness (log ratio)” value was -1.78. In the case of C8U G93A G110U G127C, the “polymerase ribozyme fitness (log ratio)” value is reported as -2.37. In the case of C8U A26U, the “polymerase ribozyme fitness (log ratio)” value is reported as -2.13. With U9C C49A C85U G120C the “polymerase ribozyme fitness (log ratio)” value was 1.08. In the case of C8U C56U G61A A95U G120A, the “polymerase ribozyme fitness (log ratio)” value is reported as -6.04. With C8U C13A G25U G39A G47U G63C G117C G120C the “polymerase ribozyme fitness (log ratio)” value was -7.2. For C8G U126C, the “polymerase ribozyme fitness (log ratio)” value was -0.307. With U9G C62A the “polymerase ribozyme fitness (log ratio)” value was -0.542. With U9A A26G G47A C49U C82G G107U the “polymerase ribozyme fitness (log ratio)” value was -6.22. For C8U G69U, the “polymerase ribozyme fitness (log ratio)” value was 0.891. With C8U G69A the “polymerase ribozyme fitness (log ratio)” value was -1.72. For U9A U96G, the “polymerase ribozyme fitness (log ratio)” value was -0.342. In the case of C8G U54G, the “polymerase ribozyme fitness (log ratio)” value is reported as 0.644. For U9G A37U A43U C73A C98A C124A, the “polymerase ribozyme fitness (log ratio)” value was -7.17. In the case of C8U C70U C97U C124U U131A, the “polymerase ribozyme fitness (log ratio)” value is reported as 0.416. For C8U U14A A41C C64U G93U C115U U125G U132A U133G, the “polymerase ribozyme fitness (log ratio)” value was -6.39. With C8U G52A A68G U81A G120U the “polymerase ribozyme fitness (log ratio)” value was -4.33. With U9A G128C the “polymerase ribozyme fitness (log ratio)” value was -2.11. For U9G C34G A121U, the “polymerase ribozyme fitness (log ratio)” value was -4.18. In the case of U9G C20A U59A, the “polymerase ribozyme fitness (log ratio)” value is reported as -3.12. In the case of U9A C85U, the “polymerase ribozyme fitness (log ratio)” value is reported as 0.475. For U9C A68G C86A C99A, the “polymerase ribozyme fitness (log ratio)” value was -6.98. For U9A C64U A66G, the “polymerase ribozyme fitness (log ratio)” value was -3.02. For U9A C70U U78A, the “polymerase ribozyme fitness (log ratio)” value was -0.654. For C8U C13A A37U G47A C62U G122A, the “polymerase ribozyme fitness (log ratio)” value was -1.54. In the case of C8U C12G G69C, the “polymerase ribozyme fitness (log ratio)” value is reported as -1.06. For U9C U112G, the “polymerase ribozyme fitness (log ratio)” value was 0.223. With U9C A68G the “polymerase ribozyme fitness (log ratio)” value was -2.42. With U9C G71A the “polymerase ribozyme fitness (log ratio)” value was 0.0862. With C8U G69U G93C the “polymerase ribozyme fitness (log ratio)” value was 0.148. In the case of C8U U87C C102U U112A G122A, the “polymerase ribozyme fitness (log ratio)” value is reported as -0.31. For U9G C56U C62U C94U U96A, the “polymerase ribozyme fitness (log ratio)” value was -1.52. With U9C U130G the “polymerase ribozyme fitness (log ratio)” value was -0.0168. For C8U G61U A66U C123A U133G, the “polymerase ribozyme fitness (log ratio)” value was 0.747. For U9A U78C C86A A121C, the “polymerase ribozyme fitness (log ratio)” value was 2.18. With C8U A29U A37U U116C the “polymerase ribozyme fitness (log ratio)” value was -2.24. In the case of C8U C115U G117A, the “polymerase ribozyme fitness (log ratio)” value is reported as -0.753. For U9G C56U C114A C115G, the “polymerase ribozyme fitness (log ratio)” value was -5.74. With U9A G122A the “polymerase ribozyme fitness (log ratio)” value was 0.926. In the case of U9G C40U C114G G122A C123G, the “polymerase ribozyme fitness (log ratio)” value is reported as -5.42. For U9C G69C, the “polymerase ribozyme fitness (log ratio)” value was -0.746. In the case of U9A C22A, the “polymerase ribozyme fitness (log ratio)” value is reported as -4.76. For U9C C12G C28U C73U G110C, the “polymerase ribozyme fitness (log ratio)” value was -1.73. With C8U A16U G77U C123U the “polymerase ribozyme fitness (log ratio)” value was 0.933. For C8U A103U C115G, the “polymerase ribozyme fitness (log ratio)” value was -5.83. In the case of U9C G19A U32A C88U C123A, the “polymerase ribozyme fitness (log ratio)” value is reported as -5.37. In the case of U9A G39C C94U, the “polymerase ribozyme fitness (log ratio)” value is reported as -0.376. With U9G C34U A103U the “polymerase ribozyme fitness (log ratio)” value was -4.66. For U9A C31U A111C G135U, the “polymerase ribozyme fitness (log ratio)” value was -4.56. With C8U C49A the “polymerase ribozyme fitness (log ratio)” value was 0.373. With U9A A50C the “polymerase ribozyme fitness (log ratio)” value was 0.19. With C8G U9G C70A the “polymerase ribozyme fitness (log ratio)” value was -1.19. In the case of U9C G10C G17A G63A U81C U92A C94U U109G A119G, the “polymerase ribozyme fitness (log ratio)” value is reported as -7.69. In the case of U9G A18C C56G C72A G120A U130A, the “polymerase ribozyme fitness (log ratio)” value is reported as -2.29. With C8U A26U C62U G93A the “polymerase ribozyme fitness (log ratio)” value was -2.86. In the case of C8U C56U U96C, the “polymerase ribozyme fitness (log ratio)” value is reported as 0.0221. With U9G C62G C82A the “polymerase ribozyme fitness (log ratio)” value was -0.591. In the case of U9C G60A, the “polymerase ribozyme fitness (log ratio)” value is reported as 0.405. For U9G C12A U54A G93A, the “polymerase ribozyme fitness (log ratio)” value was 0.0472. With C8U C102A the “polymerase ribozyme fitness (log ratio)” value was -1.17. For U9A G42A C86U C104G G110U, the “polymerase ribozyme fitness (log ratio)” value was -7.22. With C8U C20A C53U U54A C89G the “polymerase ribozyme fitness (log ratio)” value was -4.08. With U9G C40A G69A C76U C114A the “polymerase ribozyme fitness (log ratio)” value was -6.98.
